Columns and labels:
human Factor Xa (3 nM) = human Factor Xa (3 nM) (human, UniProt P00742); test: cell-based or functional assay
[1] = target: T1, human Factor XIIa (30 nM) (human, UniProt P00748); test: cell-based or functional assay
T1 sequence 1: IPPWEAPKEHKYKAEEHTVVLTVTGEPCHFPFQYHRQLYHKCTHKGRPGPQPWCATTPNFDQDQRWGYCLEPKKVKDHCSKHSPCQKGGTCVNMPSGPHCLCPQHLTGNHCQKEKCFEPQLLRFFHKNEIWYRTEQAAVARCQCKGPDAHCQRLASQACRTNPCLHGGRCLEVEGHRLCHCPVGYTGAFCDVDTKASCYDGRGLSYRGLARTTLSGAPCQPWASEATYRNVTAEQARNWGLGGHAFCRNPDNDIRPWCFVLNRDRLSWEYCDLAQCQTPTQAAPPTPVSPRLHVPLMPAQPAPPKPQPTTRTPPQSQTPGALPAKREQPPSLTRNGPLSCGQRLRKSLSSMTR
T1 sequence 2: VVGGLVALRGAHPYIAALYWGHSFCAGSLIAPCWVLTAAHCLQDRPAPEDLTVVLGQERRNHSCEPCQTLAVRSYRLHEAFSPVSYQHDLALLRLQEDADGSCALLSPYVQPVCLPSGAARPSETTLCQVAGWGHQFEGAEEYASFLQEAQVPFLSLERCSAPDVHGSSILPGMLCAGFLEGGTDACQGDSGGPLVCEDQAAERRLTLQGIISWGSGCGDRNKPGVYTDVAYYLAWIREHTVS

[2] = target: recombinant human Factor VIIa (300 nM), Novo Nordisk A/S (human, UniProt P08709); test: cell-based or functional assay
human Factor XIa (1 nM) = human Factor XIa (1 nM) (human, UniProt P03951); test: cell-based or functional assay
[3] = target: recombinant human activated protein C (5 nM), Novo Nordisk A/S (human, UniProt P04070); test: cell-based or functional assay
bovine trypsin = bovine trypsin (bovine, UniProt P00760); test: affinity chromatography of yeast supernatant on bovine trypsin coupled to CNBr-activated Sepharose

% Inhibition (human Factor Xa (3 nM)): 29%
% Inhibition [1]: 8%
% Inhibition [2]: 7%
% Inhibition (human Factor XIa (1 nM)): 100%
% Inhibition [3]: 1%
binding result (bovine trypsin): binds
B1: Kunitz-type inhibitor domain of the amyloid protein precursor (other)
chain: EVCSEQAETGPCRAMISRWYFDVTEGKCAPFFYGGCGGNRNNFDTEEYCMAVCGSA

— patent publication US5677146, “Human amyloid protein precursor homolog and kunitz-type inhibitor” (Zymogenetics, Inc., dated 1997)
